The source of these data is paper PMC6945068.

The target in the assay is ^35S-labelled in vitro-translated Flag-B56γ (X. laevis PP2A regulatory B subunit B56γ). The assay is described as follows: pull-down (amylose beads) with autoradiography quantification. Conditions: 1 h, read off a plot.

Chain of MBP-fused Apc1-loop^500 wild type (residues 515-584 of Xenopus tropicalis Apc1) (Q08D52 entry or part of it, stated change not applied): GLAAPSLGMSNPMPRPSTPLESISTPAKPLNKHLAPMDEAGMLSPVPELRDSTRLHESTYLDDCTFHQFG

Consider “MBP-fused Apc1-loop^500 wild type (residues 515-584 of Xenopus tropicalis Apc1) (from UniProt Q08D52) T532A; T539A; S558A”, for which the response by setting is: (anaphase extract (Ana) supplemented with CycB∆167, 23°C, lane 16, parent: est. 3.3) 1.1 A.U; (interphase extract (Inter), 23°C, lane 12, parent: est. 0.95) 1.1 A.U.
